One molecule from patent US9657092B2, “S100A4 antibodies and therapeutic uses thereof” (LYKERA BIOMED SA, priority 2010, dated 2017) can be followed below.

For assay [1], the system named is HUVECs migration induced by VEGF plus S100A4. The experiment in a line: HUVECs Transwell migration assay. The class given is cell-based, human. The protocol: Twenty-four-well cell culture plates with light-opaque PET membrane filter inserts with 8 μm-pores (Transwell HTS FluoroBlok™ Multiwell Insert Systems from Becton Dickinson) were used to test the migratory activity. The upper and lower surfaces of the Transwell membranes were coated for 2 hours at 37° C. with 15 μg/mL of Type I Collagen (Upstate). Endothelial cells (5×10^4 HUVEC's) suspended in 100 μl of EBM in the absence of serum or other supplements were seeded, after the collagen coating, onto the upper side of each Transwell chamber and incubated for 4 hours at 37° C. Then, S100A4 (1 μM), alone or in combination with VEGF (3 ng/mL) in EBM were added to the lower compartment of the 24-well plates to test their chemotactic capacity. […] Other monoclonal antibody anti-S100A4 called 5H4 (Leitat Biomed Division) was used to compare the activity. After 24 hours at 37° C., cells that had migrated to the lower side of the transwell were incubated with 5 μM Calcein-AM (Calbiochem) for 25-30 minutes at 37° C. Migrated cells were counted under a light microscope at a magnification of ×10. Comparisons between groups were made using the two-tailed nonparametric Mann Whitney U test. Differences for which P value was less than 0.05 were considered statistically significant.

For another assay, the target named is T1, Mouse S100A4 (Mus musculus, UniProt P07091).
T1 construct: made in house
T1 sequence (P07091 whole entry): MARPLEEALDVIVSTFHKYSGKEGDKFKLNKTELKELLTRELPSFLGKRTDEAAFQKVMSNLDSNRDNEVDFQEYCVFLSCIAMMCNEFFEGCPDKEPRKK
The experiment in a line: ELISA specificity (reaction pattern of mAb). Set-up: key to Reaction Pattern of mAb in ELISA, Mouse S100A4: ++++ positive reaction; − no reaction. The class given is binding. In general terms: ELISA stands for enzyme-linked immunosorbent assay.

In assay [2] the test system is MiaPACA-2 tumors microvasculature. The experiment in a line: Tumor microvasculature quantification by CD31 immunostaining. The class given is in vivo, nude mice. The protocol:
Tumors from MiaPACA-2 xenograft tumor model were OCT (Tissue-Tek®, Sakura) embedded and frozen. One cryosection (5 μm) corresponding to the central part of each tumor was analyzed. Sections were fixed in acetone/chloroform (1:1) at −20° C. for 5 min, were dried over night at room temperature, washed with PBS and treated for 10 min at 4° C. in a dark chamber with H2O2 (0.03%) in PBS. Then, sections were washed with PBS and blocked for 20 min at 4° C. using PBS-BSA (2%) plus rabbit serum (5%) (Vector) and with Avidin-biotin blocking solution (Dako) for 10 min each one at 4° C. Samples were incubated for 1 hour at room temperature with primary antibody; a monoclonal rat anti-mouse antibody directed against CD31 (dil 1:200, BD PharMingen) diluted in blocking buffer. After incubation sections were incubated with a polyclonal biotinylated anti-rat antibody as secondary antibody (dil 1:500, Vector) for 30 min at room temperature and were incubated with the ABC reagent (Pierce) for 30 min at room temperature. Finally, sections were incubated with NovaRed (Vector) for 20 min at 4° C., stained with hematoxilin Harris (Sigma) for 10 seconds and mounted using DPX non aqueous mounting medium (Sigma).
Angiogenesis quantification was measured using two criteria:
8 and 39 pictures per slice, depending on the size of tumours, were taken and analyzed using the NIH ImageJ imaging software.
Comparisons between groups were made using the two-tailed nonparametric Mann Whitney U test. Differences for which P value was less than 0.05 were considered statistically significant.
The inventors investigated whether the 5C3 would actually affect tumor angiogenesis in vivo. The evaluation of tumor angiogenesis was made based on the CD31 immunostaining and two analytics approximations: MicroVessel Density (M.V.D.) and the fractional area of vessels (A.A.).

In the next assay the test system is HCT116 tumors. The experiment in a line: HCT116 subcutaneous xenograft tumor development. The class given is in vivo, nude mice. The note with it: HCT116, end of experiment (day 21). The protocol:
MiaPACA-2 human pancreatic adenocarcinoma cell line and HCT116 human colorectal adenocarcinoma cell line in exponential growth were harvested with trypsin-EDTA (0.05%/0.02%) (Invitrogen), washed, and examined for viability by trypan blue dye exclusion. Viability was greater than 95%. For primary tumor growth, cells (either 5×10^6 or 1×10^6 cells for MiaPACA-2 or HCT116 respectively in 0.1 mL DMEM high glucose) were subcutaneously injected into the flanks of nude mice. Tumor volumes between 65-160 mm^3 for MiaPACA-2 and volumes between 155-370 mm^3 for HCT116 were used to divide the mice into two groups of either ten mice each (MiaPACA-2) or seven mice each (HCT116), such that the mean tumor size was equal between groups (approximately 100 mm^3 for MiaPACA-2 or 220 mm^3 for HCT116). Tumor growth was followed by measuring tumor diameters with calipers and the tumor volume was calculated using an approximated formula for a prolate ellipsoid: volume=(D×d^2)/2 where D is the longest axis of the tumor and d the shortest. Mice were treated either with vehicle (PBS) or with the antibody, i.p. three times per week at 25 mg/Kg/100 μL of sterile PBS, starting the treatment at defined tumor volume (100 mm^3 and 220 mm^3). […]

[3] abbreviates: VEGF 3 ng/mL plus S100A4 1 μM, 24 h.
The mark [4] stands for this setting: group G2, MiaPACA-2 tumors, day 30.
[5] abbreviates: individual animal of G2 (5C3 treatment group), MiaPACA-2 tumor, day 30.

Where “and” joins values, the source holds several entries; their conditions need not be identical. Identical values can stand only once.

B1: 5C3: mouse monoclonal anti-S100A4 antibody, IgG1, from hybridoma ECACC 10022401; VL SEQ ID NO: 1, VH SEQ ID NO: 2 (antibody, V domains shown)
VH: EAQLQQSGAELVKPGASVKLSCTASGFNIQETYMHWVKQRPEQGLEWIGRIDPANGNTKDDPKFQGKASITVDTSSNTAYLQLSSLTSEDTAVYYCASSYAMDYWGQGTSVTVSS
VL: DVLMTQTPLSLPVSLGDQASISCRSSQSIVHSNGNTYLEWYLQKTGQSPELLIYKVSNRLSGVPDRFSGSGSGTDFTLKISRVEAEDLGVYYCFQGSHVPFTFGSGTKLEIK
modifications: VH region of the 5C3 monoclonal antibody; VL region of the 5C3 monoclonal antibody
Consider B1, for which, in assay [1] (setting [3]), the “concentration that abolished the synergistic effect of VEGF plus S100A4 on HUVECs migration” value is 250 nM and the “neutralizing activity on HUVECs migration induced by S100A4” value is “in vitro neutralizing activity”. The “migration induced by VEGF alone” value in assay [1] (VEGF alone) was “did not affect”. Further, the “Reaction Pattern of mAb in ELISA, Mouse S100A4” value in the assay with Mouse S100A4 is recorded as “++++”. The “reaction with murine S100A4 by ELISA” value with Mouse S100A4 (purified protein) is “reacted”. In assay [2] (MiaPACA-2 tumors), the “reduction in microvessel density compared with control group (vehicle)” value is on record as “approximately 40%” and the “reduction of the section area occupied by vessels compared with control group (vehicle)” value is reported as about 30%. Further, in assay [2] (setting [4]), the “AA (%) Mean” value was 0.69%, the “AA (%) Median” value came out at 0.59%, the “MVD (v.p./mm^2) Mean” value was 27.42 v.p./mm^2 and the “MVD (v.p./mm^2) Median” value is on record as 26.45 v.p./mm^2. For the same molecule, in assay [2] (setting [5]), the “% A.A. (Fractional area of vessels)” value was 1.14% and 1.26% and 0.53% (2×) and 0.41% and 0.66% and 0.72% and 0.32%; the “M.V.D. (MicroVascular Density)” value was 31.55 v.p./mm^2 and 44.37 v.p./mm^2 and 20.23 v.p./mm^2 and 16.81 v.p./mm^2 and 29.84 v.p./mm^2 and 36.23 v.p./mm^2 and 17.31 v.p./mm^2 and 23.05 v.p./mm^2; the No of vessels is 514 and 460 and 240 and 203 and 440 and 426 and 158 and 174. For the same molecule, the “tumor weight compared with the control group” value in the assay with HCT116 tumors is “induced a decrease in tumor weight”.
